Data published in patent US20240277762A1 (published 2024).

Tests used:
[1] = biological target: T1, PRAME peptide on HLA-A*02:01 (human); assay: killing
T1 peptide: SLLQHLIGL

[2] = biological target: T2, PRAME peptide on HLA-A*02:02 (human); assay: cytokine release
T2 peptide: SLLQHLIGL

[3] = biological target: T3, PRAME peptide on HLA-A*02:04 (human); assay: cytokine release
T3 peptide: SLLQHLIGL

[4] = biological target: T4, PRAME peptide on HLA-A*02:09 (human); assay: cytokine release
T4 peptide: SLLQHLIGL

Measured: binding result

B1: T23.8-2.1-027-004 (TCR, V domains shown)
Valpha: GQQLNQSPQSMFIQEGEDVSMNCTSSSIFNTWLWYKQDPGEGPVLLIALYKAGELTSNGRLTAQFGITRKDSFLNISASIPSDVGIYFCAGLADYGGSQGNLIFGKGTKLSVKP
Vbeta: DSGVTQTPKHLITATGQRVTLRCSPRSGDLSVYWYQQSLDQGLQFLIQYYNGEERAKGNILERFSAQQFPDLHSELNLSSLELGDSALYFCASSVWASGGYEQYFGPGTRLTVT
recognises: all assays above
